Measured values as given in PMC2794159.

Target: MBD4 (methyl-CpG binding domain protein 4) (mouse, UniProt Q9Z2D7 1-554)
Assay: EMSA

MBD4 (methyl-CpG binding domain protein 4), sequence (Q9Z2D7 whole entry, the tested form may be a part): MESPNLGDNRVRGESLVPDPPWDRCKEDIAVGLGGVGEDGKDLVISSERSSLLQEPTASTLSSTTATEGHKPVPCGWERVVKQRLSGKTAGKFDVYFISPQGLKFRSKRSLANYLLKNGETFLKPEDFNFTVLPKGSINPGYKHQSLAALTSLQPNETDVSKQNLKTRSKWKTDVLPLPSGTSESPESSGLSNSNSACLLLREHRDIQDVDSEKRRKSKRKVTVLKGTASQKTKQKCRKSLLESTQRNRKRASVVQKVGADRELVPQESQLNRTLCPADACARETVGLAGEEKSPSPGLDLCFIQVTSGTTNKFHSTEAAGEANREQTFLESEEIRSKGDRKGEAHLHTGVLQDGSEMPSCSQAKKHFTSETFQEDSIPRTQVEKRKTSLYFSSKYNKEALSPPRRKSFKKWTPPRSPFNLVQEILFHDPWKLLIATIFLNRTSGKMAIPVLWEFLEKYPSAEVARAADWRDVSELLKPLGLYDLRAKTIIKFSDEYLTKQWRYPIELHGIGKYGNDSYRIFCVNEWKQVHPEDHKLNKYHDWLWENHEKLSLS

Binder: GGTCGGGGTAGCGGCTGAATCGCTGCACGCCGTAGGTCACGCG (ssDNA, m5C at position 21 (m5CpG); 3' cgcg phosphorothioate) [m5CpGGFP ssODN alone]
- binding result: no binding
